Here are results for nine molecules from patent US20230083243A1 (VEGA THERAPEUTICS, published 2023).

For assay [1], the target named is T1, human Protein S (human, UniProt P07225 42-676).
T1 construct: also called ProS; ProS1
T1 sequence: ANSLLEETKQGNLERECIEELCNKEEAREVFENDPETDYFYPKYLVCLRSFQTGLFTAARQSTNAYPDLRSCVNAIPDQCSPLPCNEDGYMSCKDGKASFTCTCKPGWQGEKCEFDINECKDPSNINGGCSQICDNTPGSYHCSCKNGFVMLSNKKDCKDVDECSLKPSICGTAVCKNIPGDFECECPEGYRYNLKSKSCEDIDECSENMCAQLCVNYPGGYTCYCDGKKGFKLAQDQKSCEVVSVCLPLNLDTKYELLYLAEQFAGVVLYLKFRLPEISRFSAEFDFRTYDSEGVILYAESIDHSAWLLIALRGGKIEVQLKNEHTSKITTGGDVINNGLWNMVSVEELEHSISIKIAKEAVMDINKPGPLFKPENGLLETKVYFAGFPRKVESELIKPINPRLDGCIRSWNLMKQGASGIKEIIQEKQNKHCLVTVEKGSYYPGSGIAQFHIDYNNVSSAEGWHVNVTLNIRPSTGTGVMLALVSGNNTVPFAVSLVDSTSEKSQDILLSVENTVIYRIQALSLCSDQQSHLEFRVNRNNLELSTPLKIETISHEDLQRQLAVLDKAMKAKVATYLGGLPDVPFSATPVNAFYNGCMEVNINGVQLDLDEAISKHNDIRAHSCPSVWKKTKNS
As to the kind of experiment: ELISA; plate coated with human Protein S; 1 µg/ml antibody; 1 mM calcium chloride. The protocol:
(§1) Calcium dependence of binding was determined using an ELISA based method. Briefly, high binding ELISA plates were coated with human Protein S. Then, buffer containing 1 μg/ml of antibody was applied to the well with either buffer containing 1 mM EDTA or 1 mM calcium chloride.
For orientation: In an ELISA, binding on a coated surface is turned into a signal by an enzyme label.

Assay [2] has as its target T1, human Protein S. The assay is described as follows: cell-based or functional assay.
For assay [3], the target named is T1, human Protein S. As to the kind of experiment: ELISA; plate coated with human Protein S; 1 µg/ml antibody; 1 mM EDTA. The protocol: as §1
Assay [4] has as its target T2, recombinant heavy chain Protein S (human, UniProt P07225 42-296).
T2 construct: Fragment of Protein S spanning amino acids 42-296, expressed and purified from HEK293 cells; also called Protein S heavy chain; heavy chain of Protein S
T2 sequence: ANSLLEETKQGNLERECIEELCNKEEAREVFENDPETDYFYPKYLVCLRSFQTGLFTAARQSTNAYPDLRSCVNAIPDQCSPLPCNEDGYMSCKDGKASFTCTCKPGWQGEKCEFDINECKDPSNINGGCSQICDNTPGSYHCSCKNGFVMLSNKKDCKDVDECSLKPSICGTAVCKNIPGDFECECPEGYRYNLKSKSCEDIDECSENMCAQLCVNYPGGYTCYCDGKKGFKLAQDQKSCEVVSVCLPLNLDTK
As to the kind of experiment: ELISA; plate coated with recombinant Protein S heavy chain; 1 mM CaCl2. As to the method:
(§2) Binding to the heavy chain of Protein S was determined using an ELISA based method. Briefly, high binding ELISA plates were coated with recombinant heavy chain Protein S expressed and purified from HEK293 cells. The “heavy chain” of Protein S represents a fragment of Protein S spanning amino acids 42-296. The coated plate was blocked with 1% casein solution. Then, buffer containing […] of antibody was applied to the well with buffer containing 1 mM calcium chloride.

The target of assay [5] is T2, recombinant heavy chain Protein S. As to the kind of experiment: ELISA on recombinant Protein S heavy chain. The protocol:
as §2

Where only a bound is given, the exact number is not on record here.

B1: Antibody 23 (antibody, V domains shown)
VH: QVQLVQSGAEVKKPGASVKVSCKSSGHTFTGYYMHWVRQAPGQGLEWMGWINPNSGDTNYAQKFQGRVTMTRDTSISTAYMEMSRLRSDDTAVYYCARDSQILWFGELGYWGQGTLVTVSS
VL: QAVVTQESALTTSPGETVTLTCRSSTGAVTASNYANWVQEKPDHLFTGLIGSTNNRAPGVPARFSGSLIGDKAALTITGAQTEDEAIYFCALWYSDHFVFGGGTKLTVL
notes: Human variable region with rat Fc
B1: in the assay with human Protein S [1], the “Binding to Protein S in CaCl2 (OD)” value stood at 0.57 OD. Besides, the “IC50 TFPI” value with human Protein S [2] is less than 4.4 nM. Besides, the “Binding to Protein S in EDTA (OD)” value with human Protein S [3] worked out at 0.26 OD. Moreover, the “Binding to heavy chain (OD)” value in assay [4] came out at 0.1 OD. For the same molecule, the binding result in assay [5] is “no binding”.

B2: Antibody 34 (antibody, V domains shown)
VH: QVQLQQSGTELVRPGTSVKMSCKAAGYTFTNHWIGWVKQRPGHGLEWIGDIYPGGGYTNYNEKFKGKASLTADTSSTTAYMQLSSLTSEDSAIYYCSRFGDQNWAWFAYWGQGTLVTVSA
VL: DIQMNQSPSSLSASLGDTITITCRASQNIHMWLSWYQQKPGNIPKLLIFKTSNLHTGVPSRFSGSGSGTDFTLTISSLQPEDIATYYCLQGQSYPFTFGGGTKLEIK
Turning to B2, in the assay with human Protein S [1], the “Binding to Protein S in CaCl2 (OD)” value was found to be 0.51 OD. For the same molecule, in the assay with human Protein S [2], the “IC50 APC” value amounted to 95.8 nM. Also, the “Binding to Protein S in EDTA (OD)” value with human Protein S [3] was 0.06 OD. Also, the “Binding to heavy chain (OD)” value in assay [4] was determined as 0.16 OD. In addition, the binding result in assay [5] is listed as “no binding”.

B3: Antibody 42 (antibody, V domains shown)
VH: QVQLVQSGSEVKKPGASVKVSCKASGYTFTNYYIHWVRQAPGQGLEWMGIITPSGGTTSYAQKFQGRVTMTRDTSTNTVYMGLSSLRSEDTAMYYCARAGVQLDRRGWFDPWGQGTLVTVSS
VL: SYELTQPPSVSVSPGQTASITCSGDKLGDKYVFWYQQKPGQSPVLVIYQDSKRPSGIPERFSGSNSGNTATLTISGTQTMDEADYYCQAWDSSTVGFGGGTKLAVL
notes: as for B1
For the molecule B3, the “Binding to Protein S in CaCl2 (OD)” value in the assay with human Protein S [1] is 0.67 OD. Moreover, the “IC50 APC” value with human Protein S [2] came out at 215 nM. The “Binding to Protein S in EDTA (OD)” value with human Protein S [3] is 0.53 OD. Also, the “Binding to heavy chain (OD)” value in assay [4] was 0.11 OD. For the same molecule, the binding result in assay [5] is reported as “no binding”.

B4: Antibody 31 (antibody, V domains shown)
VH: QVQLQESGPGLVKPSETLSLTCTVSGGSISGNYWSWIRQPPGKGLEWIGYIYYSGSTNYNPSLKSRVTISVDTSKNQFSLKLSSVTAADTAVYYCARDLDYFTWGAYSDWYFDLWGRGTLVTVSS
VL: DIQMTQSPSSLSASVGDRVTITCRASQSISTFLNWYQQKPGKAPKLLIYATSSLRSGVPSRFSGSGSGTDFTLTISSLQPEDFAIYYCQQSYSTPRTFGQGTQVEIK
notes: as for B1
As to B4, the “Binding to Protein S in CaCl2 (OD)” value with human Protein S [1] amounted to 1.03 OD. Further, the “IC50 APC” value in the assay with human Protein S [2] came to 99 nM. Moreover, the “Binding to Protein S in EDTA (OD)” value in the assay with human Protein S [3] came out at 0.63 OD. For the same molecule, the “Binding to heavy chain (OD)” value in assay [4] amounted to 0.13 OD. The binding result in assay [5] was “no binding”.

B5: Antibody 38 (antibody, V domains shown)
VH: EVQLVESGGGLVKPGGSLRLSCAASGISFSNAWMSWVRQAPGKGLEWVGRIKANPDGGTTDYAAPVKGRFTISRDDSKNTLYLQMNSLKTEDTAVYYCTTELDILLWFTSFDYWGQGTLVTVSS
VL: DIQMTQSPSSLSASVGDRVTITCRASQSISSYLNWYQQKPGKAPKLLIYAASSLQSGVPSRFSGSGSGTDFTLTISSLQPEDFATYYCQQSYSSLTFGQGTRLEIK
notes: as for B1
For B5, the “Binding to Protein S in CaCl2 (OD)” value in the assay with human Protein S [1] stood at 1.38 OD. In addition, the “IC50 APC” value in the assay with human Protein S [2] was 84 nM. In addition, the “Binding to Protein S in EDTA (OD)” value in the assay with human Protein S [3] worked out at 0.09 OD. Further, the “Binding to heavy chain (OD)” value in assay [4] worked out at 0.1 OD. In assay [5], the binding result is recorded as “no binding”.

B6: Antibody 40 (antibody, V domains shown)
VH: EVQLVESGGGLVQPGGSLRLSCAASGFTFSSYSMNWVRQAPGKGLEWVAYISSSTRTIFYADSVKGRFTISRDNAKNSLYLQMNSLRDEDTAFYYCARERSAFDYWGQGTLVTVSS
VL: SYVLTQPPSVSVAPGQTARITCGGDNIGGKSVHWYQQKPGQAPVMVVYDDSDRPSGIPERFAGSNSGNTATLAISRVEAGDEADYYCQVWEITSDHPAFGGGTRLTVL
notes: as for B1
Take B6: the “Binding to Protein S in CaCl2 (OD)” value with human Protein S [1] worked out at 0.51 OD. The “IC50 APC” value with human Protein S [2] stood at 11.9 nM. For the same molecule, the “Binding to Protein S in EDTA (OD)” value with human Protein S [3] was 0.11 OD. Also, the “Binding to heavy chain (OD)” value in assay [4] was found to be 0.11 OD. Also, the binding result in assay [5] is given as “no binding”.

B7: Antibody 33 (antibody, V domains shown)
VH: QVQLQQSGPGLVKPSQTLSLTCAISGDSVSNNNAAWNWIRQSPSRGLEWLGGTYYRSKWYNDYAVSVKSRIIINPVTSKNQFSLQLNSVTPEDTAVYYCARGSSWYRFFDYWGQGTLVTVSS
VL: EIVLTQSPGTLSLSPGERATLSCRASQSVGSSYLAWYQQKPGQAPRLLISGASGRATGIPDRFSGSGSGTDFTLTISRLEPEDFTVYYCQQYGSSPYTFGQGTKLEIK
notes: as for B1
On to B7, for which the “Binding to Protein S in CaCl2 (OD)” value with human Protein S [1] was 1.23 OD. Further, in the assay with human Protein S [2], the “IC50 APC” value came to 58.1 nM and the “IC50 TFPI” value was 34 nM. In addition, the “Binding to Protein S in EDTA (OD)” value in the assay with human Protein S [3] came to 0.2 OD. Moreover, the “Binding to heavy chain (OD)” value in assay [4] came out at 0.11 OD. For the same molecule, in assay [5], the binding result was “no binding”.

B8: Antibody 35 (antibody, V domains shown)
VH: QLQLQESGPGLVKPSETLSLTCTVSGGSITNSNYYWGWIRQPPGKGLEWIGSVYYSGTTYYNPSLKSRVTISVDPSKNQFSLKLSSVTAADTAVYYCVRESESYYYYGSDVWGQGTTVTVSS
VL: DIQMTQSPSSLSASVGDRVTITCRASQGINNYLAWFQQKPGKAPKSLIYAASSLQSGVPSKFSGSGSGTDFTLTISSLQPEDFATYYCQQYNSYPRTFGQGTKVEIK
notes: as for B1
Regarding B8, the “Binding to Protein S in CaCl2 (OD)” value with human Protein S [1] worked out at 0.96 OD. Further, the “IC50 APC” value in the assay with human Protein S [2] is 371 nM. In the assay with human Protein S [3], the “Binding to Protein S in EDTA (OD)” value came out at 0.11 OD. In assay [4], the “Binding to heavy chain (OD)” value turned out to be 0.08 OD. Further, in assay [5], the binding result is recorded as “no binding”.

B9: Antibody 36 (antibody, V domains shown)
VH: EVQLVESGGGLVKPGGSLRLSCAASGFTFSSYNMNWVRQAPGRGLDWVSSISSSSSYIYYADSVKGRFTISRDNAKNSLYLQMNTLRAEDTAVYYCARDEEWELLTGFDYWGQGTLVTVSS
VL: DIQMTQSPSSLSASVGDRVTITCRASQGINNYLAWFQQKPGKAPKSLIYAASNLQSGVPLKFSGSGSGTDFTLTISSLQPEDFATYYCQQYNSYPITFGQGTRLEIK
notes: as for B1
For the molecule B9, the “Binding to Protein S in CaCl2 (OD)” value in the assay with human Protein S [1] came out at 0.6 OD. For the same molecule, in the assay with human Protein S [2], the “IC50 APC” value was found to be 15.3 nM and the “IC50 TFPI” value was found to be 6.05 nM. Also, the “Binding to Protein S in EDTA (OD)” value with human Protein S [3] is 0.03 OD. Also, the “Binding to heavy chain (OD)” value in assay [4] is 0.08 OD. In addition, in assay [5], the binding result was “no binding”.
